A short description of this series: label from the status in PepcDB records.
On to “MSLRSKRVLVVEDNPDDIALIRRVLDRKDIHCQLEFVDNGAKALYQVQQAKYDLIILDIGLPIANGFEVMSAVRKPGANQHTPIVILTDNVSDDRAKQCMAAGASSVVDKSSNNVTDFYGRIYAIFSYWLTVNHCQEGHHHHHH”, for which the protein production entry is “not failed”. “MMKCTALIVTFNRLEKLKKSVRETVKAGFSSIVIVNNGSSDGTREWLSSLSEPGITILNLKDNLGGAGGFKVGSQYICSYSNADWVFFYDDDAYPEINILKHFSLLDTSRYRIFASRVQDTYGRSCRMNLPFIRVPSTVFETIYYAMRPERFSPVRTQVTDVQTVSFVGMIIDRKVLNNHLNDIHDELFLYYDDFFFGYKLVLSGQKIRYSPEIKFIHDISIHGKCICPEWKVYYLCRNLLLLRKLLPVPRIFSVLSIVLRLSKYLAILPWQRKKFRYLYFIWQGILHGLKGISGKYH”: the protein production result was “failed”. In the case of “MEMMLGKTYREMVFWMAWIIIPFLMEIVPALGGFIILLRKRLSIKDKAFSGKLPQITIIVPVYNSEDTLKGCIESIYNSDYPSEFIDVMLVDNQSSDNSFKIFTRCQKEFDGLSLRYMNSKQGKSKALNMALFNSSGKYIIHIDSDGKLHKDAIKNMVTRFEGNPHVHCMTGVILTDKELIEKTKGSFFKLLRKCEFFEYAQAFLAGRNFESEVGSIYTLSGAFSAFRKSTILKTQLYNSETVSEDTQITFQVKKLLNQKVYLCENALFFVDPIEGFNKLYTQRQRWQRGELEVSHMFLRDGLKFGKGFVSDFMVRTLMYDHTFAFPRMIWYFALIFLVFMNYPIYLVVGSVAVIYLLYSLSAFLFYLNVISYLKKYKEVRSYYAKKFYLIFLMPMYNFGVFWIRFCGIINSIQLQGNWKTLNLTDEWRNFLGVFKRDFSVVFKVLNKLRQVVNNE” it was “failed”; in that of “MGRPRYLAYTRQIAMKSWRKAVVGTQATVGDAIAAIESGSIQIALVLDDQNRLLGVVTDGDVRRGLLRGIPLTGLATDIMNRVPVSAPATLSRDDRLHLMRQKSIKQLPLVDEGGHLVVVETLDELLEPRHYANPVLIMAGGLGERLGALTRDVPKPMLNVGGRPLLETIVRNVVQQGFRNIYISVNYKAETIKDYFADGAAFGANIQYVHETERLGTAGALGLFPAPPDLPMIVTNGDILTTINYGALLDFHNGTPAEATMAVREHKVHVPYGVVSTSDGFLQAIREKPTESWFVSAGIYVIGSSVFGHVAPGVSIDMPTVLERVIAGKGRVAVYPIREYWLDIGRLEDFEQAHAEFHEVFPLEHHHHHH”, “not failed”; in that of “MTTMVNVDTLPEYEKSQIKRALELGTVMTVFNARKSTPERRTVQMIMETRQVAWSKTADKIEGFLDIMEIKEIRPGKNSKDFERAKAVRHKAECCFTILYGTQFVLSTLSLATDSKEDAVKWLSGLKILHQEAMSASTPTMIESWLRKQIYSVDQTRRNSISLRELKTILPLVNFKVSGIKFLKDKLVEIGAQKDELSFEQFHLFYKKLMFDQQKSILDEFKKDSSVFILGNTDRPDASAVYLQDFQRFLLHEQQELWAQDLNKVRERMTKFIDDTMRETAEPFLFVDEFLTYLFSRENSIWDEKYDAVDMQDMNNPLSHYWISSSHNTYLTGDQLRSESSTEAYIRCLRAGCRCIELDCWDGPDGKPIIYHGWTRTTKIKFDDVVQAIRDHAFVTSSFPVILSIEEHCSVEQQRHMAKVFKEVLGDMLLTKPTEASADQLPSPSQLREKIIIKHKKLGPKGDVDVNVEDKKDEHKPQGELYMWDSIDQKWTRHYCAIADAKLSFGDDIEQAVEEEPVQDTPPTELHFGEKWFHKKVESRTSAEKLLQEYCAETGAKDGTFLVRESETFPNDYTLSFWRSGRVQHCRIRSTMENGVMKYYLTDNLTFNSIYALIQHYREAHLRCAEFELRLTDPVPNPNPHESKPWYYDSLSRGEAEDMLMRIPRDGAFLIRKREGTNSYAITFRARGKVKHCRINRDGRHFVLGTSAYFESLVELVSYYEKHALYRKMRLRYPVTPELLERYNMERDINSLYDVSRMYVDPSEINPSMPQRTVKALYDYKAKRSDELTFCRGALIHNVSKEPGGWWKGDYGTRIQQYFPSNYVEDISAGDAEEMEKQIIEDNPLGSLCKGILDLNTYNVVKAPQGKNQKAFVFILEPKKQGDPPVEFATDRVEELFEWFQSIREITWKMDTKENNMKYWERNQSIAIELSDLVVYCKPTSKTKDHLENPDFREIRSFVETKADSIVRQKPVDLLRYNQKGLTRVYPKGQRVDSSNYDPFRLWLCGSQMVALNFQTPDKYMQMNHALFSLNGRTGYVLQPESMRSEKYDPMPLESQRKILMTLTVKVLGARHLPKLGRSIACPFVEVEICGAEYDSNKFKTTVVNDNGLSPVWAPTQEKVTFEIYDPNLAFLRFVVYEEDMFSDPNFLAHATYPIKGIKSGFRSVPLKNGYSEDIELASLLVFCEMRPVLESEEELYSSCRQLRRRQEELNNQLFLYDTHQNLRGANRDALVKEFNVNENQLQLYQEKCNRRLREKRVSNSRFYS”, “not failed”. In the case of “MASDSGNQGTLCTLEFAVQMTCQSCVDAVRKSLQGVAGVQDVEVHLEDQMVLVHTTLPSQEVQALLEGTGRQAVLKGMGSGQLQN” it was “not failed”. As to “MNSNDQPGLDLLGDPIVLTQRLVDIPSPSGQEKQIADEIEDALRNLNLPGVEVFRFNNNVLARTNRGLASRVMLAGHIDTVPIADNLPSRVEDGIMYGCGTVDMKSGLAVYLHTFATLATSTELKHDLTLIAYECEEVADHLNGLGHIRDEHPEWLAADLALLGEPTGGWIEAGCQGNLRIKVTAHGVRAHSARSWLGDNAMHKLSPIISKVAAYKAAEVNIDGLTYREGLNIVFCESGVANNVIPDLAWMNLNFRFAPNRDLNEAIEHVVETLELDGQDGIEWAVEDGAGGALPGLGQQVTSGLIDAVGREKIRAKFGWTDVSRFSAMGIPALNFGAGDPSFAHKRDEQCPVEQITDVAAILKQYLSE”, the protein production entry was “not failed”. In the case of “MTRTFDPIREMDRLLSDVTRTPATVAVPMDLYREGDDYTVAVDLPGVDPASIDIDVDDRTLTIRAERAAKVAKEAQWLSRERAMGTFARQLTLGHGLATDRITAEYTDGVLTLTIPVAETAKPRKVEVRHGSTTIDAMTDQAQVGSGEHQEQ” it was “failed”; in that of “MQPQNIFDNEVFFQGYKKLRENPNSANILEEKPAIFSLLPELTGKKVLDLGCGYGENCNMFSKMGANKVVGIDVSSKMLAIANNDNSGDNIFYENMCMEDIFCINEKFDVVVSSLAVHYINDFNKLVCNVNSLLKDNGIFVFSQEHPLTTAPKNGARWFKNVDGRIAHYVLTDYATSGERTVSWIVDGITKYHRTFSDIVNALIDAGFIIEKMLEPVPTKEIIERDPSSAKDLHKPNFLVTRARKK”, “failed”. “QKVPLPSLSPTMQAGTIARWEKKEGDKINEGDLIAEVETDKATVGFESLEECYMAKILVAEGTRDVPIGAIICITVGKPEDIEAFKNYTLDSSAA”: the protein production entry is “not failed”.

“MDHRASRTGLFILGLCFVLSLLGRGLGESFTVFLLPISGSFGWDRAEVVSIYSLTALCTGLASPLVGRLFDRSGPRVVYTLGMTLLGGALLIAAYAERLWQLQLTVGLCVGLGIAFTGNVPNSILLGRWFGARLPTAMAVVYSAIGAGVLVMLPIAQLLIDRYGWREAYLILGGAMLILLVPLSLMPWRRFAAGADAHAQRPAQDADEDGWTLGSAMRHHAFWALFATFFFTAIGMYSISAQVVAYLVDAGFTPLQAATAWGFSGVVLVVGMLGVSWLDGVIGRRPSILFSYAISITGLVLLWLLQWYPNLLLLGGFVICFGSMIGSRGPLITATAMSIFRGRRVGTIYGTISIGSGLGSAFGSWCGGLLHDLTQSYNPVLGFALVSVVLGMIPFLVVPALRERQ”: the protein production entry is given as “failed”. Regarding “MNKFGAEKIFIEKQSGATITHRPIFQEALDFVRAQDIFIVEAIDRLGRNYDEIIDSVNYLKKKNVRLIITSLPIMAEAIGNPLLDKFIKDLIIQILAMIAEQERTESKRRQAQGIKIAKANGVYKGRPKLYSADTKDPQRRLVYKSIVQDLKNGVAISKIAKDYNITRQTIYRIKKEIHELEIN”, the protein production result is recorded as “failed”. In the case of “MEVHAADQYLVAPGEADLLEVHARLAGTGLFPPFPPVELPGGVGGLVARGGFAQTFFFPAEVLGLTFRTPKGRRVRAGGVVVKNVQGYDLVRLFVGSFGLLGRAEEVVLRLRPGRAQAFLRRPFSGSFPRLVPTPRFLFALEDEEGPWLYAYHFGHPKEVERFREAFGGEEARPLDLRPRFPRGLGLGEGPLWDLRFRYQDGGASPPPPPAFLRLARVL” it was “not failed”; in that of “MDILKTLQKHLGDVETSDFTTNAIEKSQQIAKFSRDMKNINESVGALQVLQIACKKLFNKSMGLEDKDALQASIIKQELREIVENCQFLASPLFDTQLNIAINDEIFSMIVVNPLDLLENVGEFQAYLEEKLNEIKELLGYLSESLSNPKAFMPSFSNQSLKDLLSDNLRA”, “failed”; in that of “MSTPRQILAAIFDMDGLLIDSEPLWDRAELDVMASLGVDISRRNELPDTLGLRIDMVVDLWYARQPWNGPSRQEVVEQVIARAISLVEETRPLLPGVREAVALCKEQGLLVGLASASPLHMLEKVLTMFDLRDSFDALASAEKLPYSKPHPQVYLDCAAKLGVDPLTCVALEDSVNGMIASKAARMRSIVVPAPEAQNDPRFVLANVKLSSLTELTAKDLLG”, “not failed”. In the case of “MEIRMAAAADFAEIWPLFQAVISSGDTYVFTPDTPEQDAYDYWFGAGVRCWVAVHEGRVVGMYKLIDNQRGLGNHVANASFMVDGEARGLGIGKALGLHCIKQATDLGYRAIQFNFVVSTNTLAVALWQKLGFEIIATLPGAFNHSQLGYVDAYVMHRALLPN” it was “failed”; in that of “HMARSLYPLGVSRSLPPYRRTFNHQTFIFVKSILRLGVSMEEEEFDIREALANGEHLEKILIMAKYDESVLKKLIELLDDDLWTVVKNAISIIMVIAKTREDLYEPMLKKLFSLLKKSEAIPLTQEIAKAFGQMAKEKPELVKSMIPVLFANYRIGDEKTKINVSYALEEIAKANPMLMASIVRDFMSMLSSKNREDKLTALNFIEAMGENSFKYVNPFLPRIINLLHDGDEIVRASAVEALVHLATLNDKLRKVVIKRLEELNDTSSLVNKTVKEGISRLLLLEGHSSS”, “not failed”. In the case of “MSLETFHYIANQLSGIFNFNGEPLATALIILGLAILSIMILAGLIYGAIKVVKAVPNMPFKQFIIVMLMIAVFLVIVGVLIP” it was “failed”; in that of “MGVALAAMCLMSAQAQRRNEIQVPNLNGYTTLKCDFHMHSVFSDGLVWPTVRVDEAYREGLDAISLTEHIEYRPHKKDIIADHNRSYELSQKQAKKLGILLIRGSEITRSMPPGHFNAIFLNDSNPLEQKAYKDAFNEAKKQGAFIFWNHPGWARQQPDSTLWWPEHTQLYNDGCMHGIEVANGGLFMPEAIQWCLDKNLTMIGTSDIHQPIQTDYDFSKGEHRTMTFVFAKERSPEGIREALDNRRTAVYYRELVIGREEILRPFFEKCVDIKEVKRTEKEVTFSVMNATDLVLKLKKTAHDPSLVYFREMTLKPHTQHTISVKFDNGIKGGDCNFEVTNFIVAPDKGLDYTIKL”, “not failed”. For the sequence “MASEQEKTADFGFRTVAKDEKEVMVAEVFHSVAAKYDLMNDLMSFGIHRIWKRFTIECSGVRRNQRVLDLAGGTGDLTAKFSRMVGEGGEVILADINASMLKVGREKLRNKGIIDNINYVQANAEALPFPDDFFDCITISFGLRNVTDKNKALRSMYRVLKPGGRLLVLEFSKPVIKQLSTIYDAYSFHILPRIGEAVASDAGSYRYLAESIRMHPDQETLKGMMSDAGFDSVNYFNLTGGIVALHRGFKFLEHHHHHH”, the protein production entry is “failed”.
